Experimental data as given in the nanobody polyreactivity screen of Harvey et al. (2022).

Experiment: yeast display, Sf9 membrane polyspecificity reagent, FACS + sequencing; frameworks hold sequencing errors
Procedure, shortened: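 Galactose induction of a Saccharomyces cerevisiae BJ5465 synthetic nanobody display library ran 36–48 hours. The cells were then stained for 1 hour at 4 °C with 10% biotinylated, detergent-solubilized Sf9 membrane reagent, pulled down on streptavidin microbeads and FACS-sorted into low and high (top ~1%) gates on expression and reagent-binding fluorescence. Labels for polyreactivity follow the gate of origin.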

| Sequence | polyreactivity (PSR sort gate) |
| --- | --- |
| QVQLVESGGGLVQAGGSLRLSCAASGRTFGYTMGWYRQAPGKERELVAAITRSVTTYYADSVKGRFTISRDNAKNTVYLQMNSLKPEDTAVYYCAARPKYPYGRFGYYWGQGTQVTVSS | high polyreactivity |
| QVQLVESGGGLVQAGGSLRLSCAASGRTFGYYAMGWYRPAPGKERELVAAITRTGGSTHYADSVKGRFTISRDNAKNTVYLQMNSLKPEDTAVYYCAVDYHQAWPSADYWFEYDYWGQGTQVTVSS | low polyreactivity |
| QVQLVESGGGLVQAGGSLRLSCAASGRTFGYYAMGWYRQAPGKEREFVAAISSRGGSTRYADSVKGRFTISRDNAKNTVYLQMNSLKPEDTAVYYCNKGYYRHPDESDYGGQGTQVTVSS | high polyreactivity |
| QVQLVESGGGLVQAGGSLRLSCAASGRTFGYYAMGWYRQAPGKERELVAAINSRGGSTYYADSVKGRFTISRDNAKNTVYLQMNSLKPEDTAVYYCAVVRWRQYIFATYDYWGQGTQVTVSS | high polyreactivity |
| QVQLVESGGGLVQAGGSLRLSCAASGRTFGYYAMGWYRQAPGKERELVAAISRGGRTNYADSVKGRFTISRDNAKNTVYLQMNSLKPEDTAVYYCAKSGTIPRYTASYSLLDYWGQGTQVTVSS | low polyreactivity |
| QVQLVESGGGLVQAGGSLRLSCAASGRTFGYYAMGWYRQAPGKERELVAAISSRSSTTYYADSVKGRFTISRDNAKNTVYLQMNSLKTEDNAVYYCNVAYGEWKTFDYWGQGTQVTVSS | high polyreactivity |
| QVQLVESGGGLVQAGGSLRLSCAASGRTFGYYAMGWYRQAPGKERELVAAISWRGGSTYYADSVKGRFTISRDNAKNTVYLQMNSLKPEDTAVYYCHRAYVYPQGPYPYDYWGQGTQVTVSS | high polyreactivity |
| QVQLVESGGGLVQAGGSLRLSCAASGRTFGYYAMGWYRQAPGKERELVAAITRTGGSTHYADSVKGRFTISRDNAKNTVYLQKNSLKPEDTAVYYCARDYRYTIPYDYWGQGTQVTVSS | low polyreactivity |
| QVQLVESGGGLVQAGGSLRLSCAASGRTFGYYAMGWYRQAPGQERELVAAISWSDSGTYYADSVKGRFTISRDNAKNTVYLQMNSLKPEDTAVYYCAKDEPYFVFRDTYDYWGQGTQVTVSS | high polyreactivity |
| QVQLVESGGGLVQAGGSLRLSCAASGRTFGYYGMGWYRQAPGKERELVASINFSSGSTFYADSVKGRFTISRDNAKNTVYLQMNSLKPEDTAVYYCAARAKAVRTYAYNYWGQGTQVTVSS | low polyreactivity |
| QVQLVESGGGLVQAGGSLRLSCAASGRTFGYYVMGWYRQAPGKERELVAAISRSGGTTYYADSVKGRFTISRDNAKNTVYLQMNSLKPEDTAVYYCATDSRTGYDYWGQGTQVTVSS | high polyreactivity |
| QVQLVESGGGLVQAGGSLRLSCAASGRTFHGYAMGWYRQAPGKERELVAAITSSGARTYYADSVKGRFTISRDNAKNTVFLQMNILKPEDSAVYYCAVNWLRGMDWGQGTQVTVSS | high polyreactivity |
| QVQLVESGGGLVQAGGSLRLSCAASGRTFHLYAIGWSRQAAGKERELVAAINSGGRTNYADSVKGRFTISLDNAKNTVYLQLNSLKPEDTAVYYCAARANPYVLKYYYWGQGSQVTVSS | high polyreactivity |
| QVQLVESGGGLVQAGGSLRLSCAASGRTFHNYAMGRYRQAPGKERELVAAISRGGNTYYADSVKGRFTISRDNSKNTVYLQMNSLKPEDTAVYYCAKDNHFEAYRYDYWGQGTQVTVSS | high polyreactivity |
| QVQLVESGGGLVQAGGSLRLSCAASGRTFHRNAMGWYRQAPGKERELVAAITGDGRTNYADSVKGRFTISRDNAKNTVYLQMNSLKPEDTAVYYCNRDNDYYRPGGRPVGIFDYWGQGTQVTVSS | low polyreactivity |
| QVQLVESGGGLVQAGGSLRLSCAASGRTFHRYAMGWYRPAPGKERELVAAISRGGITYYADSVKGRFTISRDNAKNTVYLQMNSLKPEDTAVYFCAALYRYYHESSPFDYWGQGTQVTVSS | high polyreactivity |
| QVQLVESGGGLVQAGGSLRLSCAASGRTFHRYAMGWYRQAPVKEREVLAAITSSGGSTNYADSVKVRFTISRDNAKNTVYVQMNSLQPEDTAVYYCATDRYRYTSHPWSRGFDYWGQGTQVTVSS | low polyreactivity |
| QVQLVESGGGLVQAGGSLRLSCAASGRTFHSYAMGWYRQAPGKERELVAAIRGRGGTTYYADSVKGRFTFSRDNAKNTVYLQMNSLKPEDTAVYYCNAVVRRYFTAAATYDYWGQGTQVTVSS | high polyreactivity |
| QVQLVESGGGLVQAGGSLRLSCAASGRTFHVYAMGWYRQAPGKEREFVAFISRRGGSTYYADSVKGRFTISRDNAKNTVYLQMNSLKPEDTAVYYCKARYVTSRSAYQRGGDYWGQGTQVTVSS | high polyreactivity |
| QVQLVESGGGLVQAGGSLRLSCAASGRTFHWYAMGGYRQAPGKERELVAAIRYSAGSTYYADSVKGRFTISRDNAKNTVYLQMNSLKPEDTAVYYCAAEPYPYGPYYLLWLRYDYWGQGTQVTVSS | low polyreactivity |
| QVQLVESGGGLVQAGGSLRLSCAASGRTFIANAMGWYRKAPRKERELLAVITLNGGSTYYADSVKGRFTISRDNAKKTVYLQMNSLKPEDTAVYYCNARYYPLYSKSYDSWGQGTQVPVSS | low polyreactivity |
| QVQLVESGGGLVQAGGSLRLSCAASGRTFIFYAMGWYRQAPGKERELVAAITYSGTSTYYADSVKGRFTISRDNAKNTVYLQMNSLKPEDTAVYYCAKDGQRDANYYWGQGTQVTVSS | low polyreactivity |

| Sequence | polyreactivity (PSR sort gate) |
| --- | --- |
| QVQLVESGGGLVQAGGSLRLSCAASGRTFIGYAMGWYRQAPGKERELVAAISSSGGRTYYADSVKGRFTISRDNAKNTVYLQMNSLKPEDTAVYYCATGSWARDYYYWGQGTQVTVSS | high polyreactivity |
| QVQLVESGGGLVQAGGSLRLSCAASGRTFIHYAMVWYRQAPGKERELVAAISRRGGSTYYADSVKGRFTISRDNAKNTVYLQMNSLKPEDTAVYYCAKATTTREPKYGYWGQGTQVTVSS | high polyreactivity |
| QVQLVESGGGLVQAGGSLRLSCAASGRTFIKYAMGWYRPAPGKERELVAAITHRGTNTYYADSVKGRFTISRDNAKYTVYLQMNSLKPEDTAVYYCAAAAPSYPSYDYWGQGTQVTVSS | low polyreactivity |
| QVQLVESGGGLVQAGGSLRLSCAASGRTFIWYAMGWYRQAPGKEREFVAAIRSSGGRTYYADSVKGRFTISRDNAKNTVYLQMNSLKPEDTAVYYCAKEAYYGWYWYGYWGQGTQVTVSS | high polyreactivity |
| QVQLVESGGGLVQAGGSLRLSCAASGRTFIWYVMGWYRQAPGKERELVASISTNGGNTYYADSVKGRFTISRDNAKNTVYLQMNSLKPEDTAVFYCAVDGVDAYYIAYYYWGQGTQVTVSS | high polyreactivity |
| QVQLVESGGGLVQAGGSLRLSCAASGRTFIYYAMGWYRQAPGKERELVAGISRNGGRTYYADSVKGRFTISRDNAKNTVYLQMNSLKPEDTAVYYCNAYPPSRHDYWGQGTQVTVSS | high polyreactivity |
| QVQLVESGGGLVQAGGSLRLSCAASGRTFKAYAMGWYRQAPGKEREFVAAITKRGGSTYYADSVKGRFTISRDNAKNTVYLQMNSLKPEDTAVYYCAVGLGRYTHTSVPIPSYDYWGQGTQVTVSS | high polyreactivity |
| QVQLVESGGGLVQAGGSLRLSCAASGRTFKCYAMGWYRQAPGKETELVAAISYRGGSTYYADSVKGRFTISRDNAKNTVYLQIKRLKPEDTAVYYCAARWNRGRYDYWGQGTQVTESS | high polyreactivity |
| QVQLVESGGGLVQAGGSLRLSCAASGRTFKENAMGWYRQAPGKERELVAVINSGGRTYYADSVKGRFTISRDNAKNTVYLQMNSLKPEDTAVYYCAAYSRSKESGYWGQGTQVTVSS | high polyreactivity |
| QVQLVESGGGLVQAGGSLRLSCAASGRTFKFYAMGWYRQAPGKERELVATITSGGSTYYADSVKGRFTISRDNAKNTVYLQMNSLKPEDTAVYYCNKRYRKPGSGWYDSWGQGTQVTVSS | high polyreactivity |
| QVQLVESGGGLVQAGGSLRLSCAASGRTFKGYAMGWYRQAPGKERELVAAISYRGGSTYYADSVKGRFTISRDNAKNTVYLQMNSLKPEDTAVYYCAARWNRGRYDYWGQGTQVTVSS | high polyreactivity |
| QVQLVESGGGLVQAGGSLRLSCAASGRTFKGYAMGWYRQAPGKERELVAGISTGGNTNYADSVMGRFTISRDNAKNTVYLQMNSLKPEDTAVYYCNAVYRGFTHYTGYEYWGQGTQVTVSS | high polyreactivity |
| QVQLVESGGGLVQAGGSLRLSCAASGRTFKGYAMGWYSQAPGKDRELVAAISYRGGSTYYADSVKGRFTISRDNAKNTGYLQMNILKPEDTAFYYCAARWNRGRYDYWGQGTQVTVSS | high polyreactivity |
| QVQLVESGGGLVQAGGSLRLSCAASGRTFKHYAMGGYRQAPGKERELVAAITSGGSTYYADSVKGRFTISRDNAKNTVYLQMNSLKPEDTAVYYCNKESYFDTYRRYDSWGQGTQVTVSS | low polyreactivity |
| QVQLVESGGGLVQAGGSLRLSCAASGRTFKIYAMGWYRQAPGKEREFVASINWSGGITYYADSVKGRFTISRDNAKNTVYLQMNSLKPEDTAVYYCAARIDSSRIGKRFYYWGQGTQVTVSS | high polyreactivity |
| QVQLVESGGGLVQAGGSLRLSCAASGRTFKKYALGWYRQAPGKEREVVAAITSRVRSTSYADSVKGRFTISRDNAKNTVYLQMNSLIPEDTAVYYCAARYSVGNGYGYWGQVTQVTVSS | high polyreactivity |
| QVQLVESGGGLVQAGGSLRLSCAASGRTFKKYAMGWYRQAPGKERELVAAIRRSGGSTYYADSVKGRFTISRDNAKNTVYLQMNSLKPEDTAVYYCAADFRVGRYDYWGQGTQVTVSS | high polyreactivity |
| QVQLVESGGGLVQAGGSLRLSCAASGRTFKKYAMGWYRQAPGKERELVAAITSRVGSTSYADSVKGRFTISRDNAKNTVYLQMNSLKPEDTAVYYCAARYSVGTGYGYWGQGTQVTVSS | high polyreactivity |
| QVQLVESGGGLVQAGGSLRLSCAASGRTFKKYAMGWYRQAPGTERELVAAFTGSGGSTYYADSVKGRFTISRDNAKNTVYLKMNSLKPEDTAVYYCAAYAYGVWHSQDGGNYWGQGTQVTVSS | low polyreactivity |
| QVQLVESGGGLVQAGGSLRLSCAASGRTFKKYTMGWYRQAPGKERELVAVITSGGSTYYADSVKGRFTISRDNAKNTVYLQMNSLKPEDTAVYYCATKASYKGDYWGQGTQVTVSS | high polyreactivity |
| QVQLVESGGGLVQAGGSLRLSCAASGRTFKLYAMGWYRQAPGKESELVAAISRSGGSTYYADSVKGRFTISRDNAKNTVYLQMKSLKPEDTAVYYCNRRQGYHGDYDYWGQGTQVTVSS | high polyreactivity |
